Data as given in patent US5763571A, “Inhibiting protein interactions” (The General Hospital Corporation, priority 1995, dated 1998).

Molecular target: T1, Raf(1-257) (Homo sapiens, UniProt P04049)
T1 construct: expressed in transfected cells; host or cells: yeast strain GGY1::171, plasmid pMA424
Assay: Yeast two-hybrid GAL4/lacZ interaction with Raf(1-257)
Assay type: cell-based
Conditions: X-gal plates
Method: Detection of protein-protein interactions using the two-hybrid system in yeast was carried out as follows. The vector pMA424 (Chien C. T., Bartel P. L., Sternglanz, R., Fields, S., Proc. Natl. Acad. Sci. U.S.A. 88, 9578-9582 (1991)) containing either Raf(1-257) or Raf(1-257, C168 →S) DNA sequences fused in frame with the sequences encoding GAL4 (1-147), was cotransformed into yeast together with the pACTII vector containing no insert as a control, or DNA sequences encoding V12GrasH, V12GrasHΔCT, murine rap1b, or rap1bΔCT fused in frame with the GAL4 transactivation domain II. […]
The DNA sequences encoding Raf(1-257) and Raf(1-257, C168 →S) were prepared by the PCR using the plasmids RSV-C4 and RSV-PM17 (Bruder, J. T., Heidecker, G. & Rapp, U.R. Genes Dev. 6, 545-556 (1992)) respectively as templates. […] The reading frame and the C168 →S mutation were verified by DNA sequencing. […] Transformants were grown on SDHis-Leu-plates as in (Durfee, T. et al. Genes Develop. 7, 555-569 (1993); Chien C. T., Bartel P. L., Sternglanz, R., Fields, S., Proc. Natl. Acad. Sci. U.S.A. 88, 9578-9582 (1991)) for 3 days before replica plating to X-gal containing plates, which in turn were scored for blue colonies 72 hours later.
Ras effector domain mutants which impair the interaction between V12GrasHΔCT and Raf(1-257) were analyzed as follows. […]

lacZ expression on coexpression with wild-type Raf(1-257) (in words)	Molecule
interact strongly	V12Grap-1bΔCT: V12Grap-1b lacking the carboxyterminal 4 amino acids (protein) ANFNQSGNIADSSLSFTFTNSSNGPNLITTQTNSQALSQPIASSNVHDNFMNNEITASKIDDGNNSKPLSPGWTDQTAYNAFGITTGMFNTTTMDDVYNYLFDDEDTPPNPKKEMREYKLVVLGSVGVGKSALTVQFVQGIFVEKYDPTIEDSYRKQVEVDAQQCMLEILDTAGTEQFTAMRDLYMKNGQGFALVYSITAQSTFNDLQDLREQILRVKDTDDVPMILVGNKCDLEDERVVGKEQGQNLARQWNNCAFLESSAKSKINVNEIFYDLVRQINRKTPVPGKARKKSS
interact strongly	V12Grap-1b: Rap 1b low molecular weight GTP binding protein variant, GAL4 fusion (protein) ANFNQSGNIADSSLSFTFTNSSNGPNLITTQTNSQALSQPIASSNVHDNFMNNEITASKIDDGNNSKPLSPGWTDQTAYNAFGITTGMFNTTTMDDVYNYLFDDEDTPPNPKKEMREYKLVVLGSVGVGKSALTVQFVQGIFVEKYDPTIEDSYRKQVEVDAQQCMLEILDTAGTEQFTAMRDLYMKNGQGFALVYSITAQSTFNDLQDLREQILRVKDTDDVPMILVGNKCDLEDERVVGKEQGQNLARQWNNCAFLESSAKSKINVNEIFYDLVRQINRKTPVPGKARKKSSCQLL
